Results taken from US20150152166A1.

How the values were obtained:
[1] = target: GPCMV gB (glycoprotein B of guinea pig CMV strain V545/82) (guinea pig cytomegalovirus); assay: cell-based or functional assay
[2] = target: CMV gp116 epitope AD2 site peptide … (CMV (human cytomegalovirus)); assay: kinetic affinity measurement, method not stated; antigen taken as AD2 peptide; same value as r7, table re-sorted by koff
[3] = target: CMV gp116 epitope AD2 site peptide … (CMV (human cytomegalovirus)); assay: kinetic affinity measurement, method not stated; antigen taken as CMV gp116 AD2 peptide

## ITC88 control antibody
[1]
  neutralization of GPCMV V545/82 entry into JH4 cells; highest concentration tested without effect: > 300 ng/mL
[2]
  Kd: 1.51 nM
  koff: 0.00116 s⁻¹
  kon: 767000 M⁻¹ s⁻¹
[3]
  Kd: 1.51 nM
  koff: 0.00116 s⁻¹
  kon: 767000 M⁻¹ s⁻¹
